Target: RSV protein F (recombinant or purified F protein) (respiratory syncytial virus (RSV), strain not stated)
Experiment: SPR (Biacore), Fab on recombinant antigen

Fab fragments derived from commercially available Palivizumab (Synagis)
Kd: 3.78 nM
koff: 0.000757 s⁻¹
kon: 200000 M⁻¹ s⁻¹
t1/2: 15 min
